Test results: publication PMC8918029 (Journal of medicinal chemistry, 2021)
Square brackets hold non-standard residues; d marks the D form. * marks the point of attachment. Boc = CC(C)(C)OC(=O)*; Aib = CC(C)(N)C(=O)O

Biological target: γ-secretase complex (presenilin-1, nicastrin, Aph-1, Pen-2) (UniProt Q92542 34-709; Q96BI3 1-265; Q9NZ42 1-101)
Experiment: enzyme inhibition kinetics

Boc-VG[Aib]VVI[Aib]FV[Aib]GGGVFFLV-NH2 (also: hydroxyethylurea isostere (ψ) between the two Phe (15-16)) [HPI-TSA conjugate 28]
Ki: 1.19 ± 0.1 nM
